The record followed here is US20210047373A1, “BETA BARREL POLYPEPTIDES AND METHODS FOR THEIR USE” (UNIVERSITY OF WASHINGTON, priority 2018, published 2021).

The nature of data set [1]: Chromophore titration, fit to single binding site isotherm: DFHBI. Particulars: for Kd: n=1 titration, ± SD of the fit, Table 3C, read-out: DFHBI Kd. As to the method:
Fluorescence binding assay. Protein-activated DFHBI fluorescence signals were measured in 96-well plate format (Corning 3650) on a Synergy neo2 plate reader (BioTek, Inc) with λex=450 nm or 460 nm and λem=500 nm or 510 nm. Binding reactions were performed at […] in PBS pH7.4 buffer. Protein concentrations were determined by 280 nm absorbance as described above. DFHBI (Lucerna, Inc) were resuspended in DMSO as instructed to make 100 mM stock and diluted in PBS to 0.5-10 μM. Approximate emission spectra were recorded for active designs from 490 to 600 nm.
(§1) Table 3A-C. Brightness and chromophore affinities of selected mFAP variants. Fluorescence brightness measurements at 10 μM (top table) and 100 nM (middle table) chromophore concentrations were normalized from 0 to 1 across all three chromophores (DFHBI, DFHBI-1T, and DFHO), and the normalized values for two protein concentrations tested for each chromophore at each chromophore concentration were averaged and standard deviations of the average computed. Reported values are the normalized averages and standard deviations of the means for each chromophore concentration and each chromophore. Reported relative densitometry values are the relative densitometry values normalized from 0 to 1 and represent how well each design expresses relative to one another in Lemo21(DE3) E. coli cultures. Thermodynamic dissociation constants (bottom table) are obtained by non-linear least squares fitting of chromophore titrations (n=1) to a single binding site isotherm, and values reported with the standard deviation of the fit. Where the obtained Kd values are below the protein concentration tested, the Kd and standard deviation of the fit are reported in parentheses. Values with “N/D” were not determined.

A short description of data set [2]: Chromophore titration, fit to single binding site isotherm: DFHBI-1T. The conditions noted are these: n=1 titration; ± SD of the fit; Table 3C. As to the method:
as §1

Data set [3] can be described thus: Chromophore titration, fit to single binding site isotherm: DFHO. The conditions noted are these: n=1 titration; ± SD of the fit; Table 3C. As to the method:
as §1

Data set [4] in a line: Fluorescence activation / brightness with DFHBI. Format: biochemical. The conditions noted are these: for Fluorescence brightness, 100 nM DFHBI / Fluorescence brightness, 10 μM DFHBI: normalized 0 to 1 across all three chromophores, average ± SD of two protein concentrations.
The nature of data set [5]: Fluorescence brightness with DFHBI-1T. In kind it is biochemical. The conditions noted are these: normalized 0 to 1 across all three chromophores; average ± SD of two protein concentrations.
Data set [6] is described as follows: Fluorescence brightness with DFHO. In kind it is biochemical. Particulars: normalized 0 to 1 across all three chromophores; average ± SD of two protein concentrations.
Data set [7] in a line: DFHBI titration of Ca2+-responsive mFAP variants in excess or absence of Ca2+. Particulars: DFHBI titration in absence and presence of Ca^2+, n=1. Format: binding. The source says:
FIG. 23. In vitro fluorescence characterization of Ca^2+-responsive mFAP variants. […] Normalized fluorescence values (n=1) are fit to a sigmoid equation using non-linear least squares fitting (lines). […] Error bars represent the standard deviation of the mean of 3 technical replicates. The means are fit to a sigmoid equation (for positive allostery) or inverse sigmoid equation (for negative allostery) with Hill coefficients of 1 using non-linear least squares fitting (lines) to extract reported Kd values in Table 5.
DFHBI Kd^+(in excess Ca^2+), DFHBI Kd^−(in absence of Ca^2+), and Ca^2+Kd (in excess DFHBI) are computed by fitting the normalized fluorescence readouts from titrations to a single binding site isotherm equation with Hill coefficient of 1 using non-linear least squares fitting. Standard deviations of the fit are reported. Hill coefficients are reported for fitting the titration data to a single binding site isotherm with variable Hill coefficient using non-linear least squares fitting, and the standard deviation of the fit are reported. For positive allosteric modulators, Kd^−/Kd^+ is reported, and for negative allosteric modulators, Kd^+/Kd^− is reported. […]

In data set [8] the test system is E. coli cells. Kind of data set: Confocal imaging of E. coli expressing mFAP2a or mFAP2b labeled with chromophore. In kind it is cell-based. The conditions noted are these: for Chromophore selectivity, DFHBI versus DFHBI-1T: E. coli imaging. From the text:
FIG. 20: Characterization of brighter and chromophore-specific mFAP variants (mFAP2a and mFAP2b). (a) Design model of de novo β-barrel variant mFAP2b protein backbone (cartoon) bound to small molecule chromophore DFHBI (sticks). (b, c) Chemical structures of the chromophores DFHBI and DFHBI-1T, respectively. (d, e) In vitro titration of (d) DFHBI or (e) DFHBI-1T with purified mFAP2, mFAP2b, and mFAP2a proteins. mFAP2a/DFHBI, mFAP2a/DFHBI-1T, and mFAP2b/DFHBI complexes are brighter than the mFAP2/DFHBI complex. mFAP2a has higher affinity toward DFHBI compared to mFAP2b. mFAP2a binds DFHBI-1T with higher affinity than mFAP2 and the complex has brighter fluorescence than the DFHBI systems. Error bars represent standard deviation of the mean of 8 technical replicates. Shown are the non-linear least squares fits to a single binding-site isotherm equation (lines). […] (f-i) The images on the left of each panel were acquired using a laser scanning confocal fluorescence microscope and show pseudo-colored normalized fluorescence intensity values per pixel. Scale bars represent 10 microns. In the design models shown on the right of each panel the residues unique to mFAP2b (V13, M15) and residues unique to mFAP2a (A13, F15) are shown as sticks. Intermolecular hydrogen bonds to the chromophore are shown as black dotted lines. […]
It was hypothesized that a commercially-available variant of the DFHBI chromophore with a trifluoromethyl group, DFHBI-1T (FIG. 20 c), could pack into the void without causing steric clashes with nearby amino acid side-chains and could therefore fit into the mFAP2a binding pocket, while […] would result in steric clashes in the mFAP2b pocket. Studying the fluorescence of mFAP2a and mFAP2b in the presence of DFHBI-1T experimentally validated this hypothesis. […] Based on the absolute and relative quantum yields measured for these four complexes, the brightest protein-chromophore combination is mFAP2a with DFHBI-1T, with an absolute quantum yield of 12.9% (˜3.5-fold dimmer than EGFP).

Data set [9] is described as follows: Photophysical characterization (absorbance, excitation, emission, extinction coefficient, quantum yield). Format: physicochemical.
Data set [10] concerns fixed COS-7 cells. As to the kind of experiment: Photostability under continuous wave imaging. The conditions noted are these: endoplasmic reticulum, 50 μM DFHBI, frame 1 to frame 200. Format: cell-based. On the procedure:
FIG. 21: Super-resolution microscopy and photostability of mFAP2a and mFAP2b. (a-g) To show the application of the mFAP system in super-resolution microscopy, mFAP2a and mFAP2b were fused to a designed protein polymerizing into a filament (DHF119). (a) The maximum diameter of the DHF119 fiber fused to the 6×His-tagged mFAP2b was estimated to be ˜22 nm based on the computational design models. (b-d) The DHF119-GS-mFAP2a-6×His fiber was labeled at 5.78 μM DFHBI-1T and (e-f) the DHF119-GS-mFAP2b-6×His was labeled at 1.83 μM DFHBI. Both systems were imaged with (b,e) fluorescence widefield microscopy and (c,f) fluorescence localization microscopy. Scale bars are 1 micron. (d,g) Normalized average intensity profiles between the yellow arrowheads shown in the widefield image (black line) or localization reconstruction (grey line) estimate the diameter of the fluorescent filament. The mean and standard deviation of the mean of the full width half maximum (FWHM) values of the three intensity profiles are annotated, 11-k) Photostability of mFAP2a and mFAP2b complexes with DFHBI and DFHBI-1T compared to AcGFP1. […] Normalized fluorescence intensity images are shown for four regions of interest (ROIs). (h, i) Frames 1 (left) to 200 (right) were acquired under continuous wave imaging at 0.885 Hz (1.13 s/frame). Scale bars are 10 microns. […]

Residue numbers refer to the chain shown, from its start. In names and notes the source's numbering stands.

B1: mFAP2b: SEQ ID NO:69; mFAP2.5 with V67I (protein)
chain: MSRAAQLLPGTWQVTMTNEDGQTSQGQWHFQPRSPYTMDIVAQGTISDGRPIVGYGKATVKTPDTLDIDITYPSLGNIKAQGQITMDSPTQFKWDATTKGENDFHGRLTGTLQRQE
modifications: (1)..(1) optionally absent
As for B1, the “Weaker affinity for the chromophore than mFAP2” value in data set [1] (DFHBI) is around 14.1 fold. In data set [1], the Kd worked out at 1.67 ± 0.08 µM. Further, the affinity in data set [2], expressed as Kd, was 42.2 ± 6.03 µM. The Kd in data set [3] was determined as 9.01 ± 1.91 µM. Moreover, in data set [4] (FIG. 20 d,e), the “DFHBI complex brighter than DFHBI-1T complex” value was around 70 fold. In [4] (neutral pH), the “Brighter than mFAP2.4” value is on record as around 1.3 fold and the “Brighter than mFAP2.5” value is given as around 1.2 fold. Also, in [4], the “Fluorescence brightness, 100 nM DFHBI” value was 0.82 ± 0.02 and the “Fluorescence brightness, 10 μM DFHBI” value amounted to 1.0 ± 0.0. Besides, the “Brighter fluorescence than mFAP1” value in [4] (protein at 10-fold higher concentration than DFHBI, peak emission 511 nanometers) is “approximately 4.5”. For the same molecule, in data set [5], the “Fluorescence brightness, 100 nM DFHBI-1T” value amounted to 0.01 ± 0.0 and the “Fluorescence brightness, 10 μM DFHBI-1T” value is 0.01 ± 0.0. Further, in data set [6], the “Fluorescence brightness, 100 nM DFHO” value was determined as 0.01 ± 0.0 and the “Fluorescence brightness, 10 μM DFHO” value came to 0.01 ± 0.0. In addition, the “Allostery between Ca^2+ and DFHBI binding” value in data set [7] is given as “no allostery”. Further, in data set [8] (10 μM chromophore), the “Fluorescent signal in E. coli with DFHBI-1T” value is listed as “does not give a fluorescent signal”. In addition, the “Chromophore selectivity, DFHBI versus DFHBI-1T” value in [8] is “pronounced chromophore selectivity”.

B2: mFAP2a: SEQ ID NO:66 (protein)
chain: B1 chain with V14A, M16F
modifications: (1)..(1) optionally absent
B2: the “Absolute quantum yield with DFHBI-1T” value in [9] is reported as 12.9%. Moreover, the “Brightness, times dimmer than EGFP” value in [9] (with DFHBI-1T) is around 3.5 fold. In addition, in data set [1], the Kd was found to be 0.0546 ± 0.01 µM. In [2], this molecule registered a Kd of 3.7 ± 0.56 µM. In data set [3], this molecule had a Kd of 8.47 ± 1.99 µM. Besides, in [4] (low DFHBI concentration (554.88 nM), neutral pH), the “Brighter fluorescence than mFAP2b” value is reported as around 1.3 fold. In data set [4], the “Fluorescence brightness, 100 nM DFHBI” value came to 1.0 ± 0.0 and the “Fluorescence brightness, 10 μM DFHBI” value is reported as 0.77 ± 0.12. In addition, in [5], the “Fluorescence brightness, 100 nM DFHBI-1T” value was determined as 0.59 ± 0.06 and the “Fluorescence brightness, 10 μM DFHBI-1T” value was 0.92 ± 0.05. Besides, in [6], the “Fluorescence brightness, 100 nM DFHO” value is 0.03 ± 0.01 and the “Fluorescence brightness, 10 μM DFHO” value amounted to 0.04 ± 0.0. Moreover, the “Chromophore selectivity, DFHBI versus DFHBI-1T” value in data set [8] was “pronounced chromophore promiscuity”. Moreover, the “Photostability compared to AcGFP1” value in data set [10] was “higher fluorescent signal is retained”.
